Assay results taken from US20100136009A1 (DIADEXUS, published 2010).
Positions count from the first letter of the chain named.

T1: native Ovr110 protein on tumor cells (ZR-75-1, SKBR3, RL95.2, OVCAR3) (human, UniProt Q7Z7D3 25-282)
T1 construct: whole, on cells; Endogenous protein of Ovr110-positive tumor cell lines; also called B7-H4; B7x
T1 sequence (looked up): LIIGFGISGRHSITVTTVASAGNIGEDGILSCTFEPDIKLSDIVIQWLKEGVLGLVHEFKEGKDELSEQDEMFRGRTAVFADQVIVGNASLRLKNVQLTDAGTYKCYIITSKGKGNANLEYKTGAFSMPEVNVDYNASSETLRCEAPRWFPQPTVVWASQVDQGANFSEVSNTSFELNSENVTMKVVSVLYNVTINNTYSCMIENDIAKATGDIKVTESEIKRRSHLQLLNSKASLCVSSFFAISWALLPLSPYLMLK

T2: recombinant Ovr110-hFc encoded by Ovr110 Construct 2 (human)
T2 construct: Captured on plates by goat anti-human IgG Fc; also called Ovr110-hFc (with TM)
T2 chain: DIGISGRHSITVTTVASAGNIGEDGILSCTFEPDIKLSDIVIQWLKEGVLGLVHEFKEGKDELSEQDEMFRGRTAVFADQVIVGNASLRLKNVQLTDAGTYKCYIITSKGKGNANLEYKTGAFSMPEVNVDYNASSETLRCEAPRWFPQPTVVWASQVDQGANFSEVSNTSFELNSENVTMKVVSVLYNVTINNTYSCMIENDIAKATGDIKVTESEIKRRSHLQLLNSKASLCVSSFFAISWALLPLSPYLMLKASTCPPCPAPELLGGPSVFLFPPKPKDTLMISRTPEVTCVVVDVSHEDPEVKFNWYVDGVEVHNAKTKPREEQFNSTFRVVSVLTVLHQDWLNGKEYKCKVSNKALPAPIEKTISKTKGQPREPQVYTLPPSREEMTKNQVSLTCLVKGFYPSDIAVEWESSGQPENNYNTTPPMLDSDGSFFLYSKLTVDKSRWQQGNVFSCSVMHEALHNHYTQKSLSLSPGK

T3: Ovr110 (amino acids 1-282; Ovr110 Construct 1 without the 6-His tag) expressed on transiently transfected … (human, UniProt Q7Z7D3 25-282)
T3 construct: signal peptide not removed here
T3 sequence: T1 sequence (looked up)

B1: Ovr110.Q27 (antibody, IgG1, V domains shown)
VH: QVQPQQSGAELARPGASVKLSCKASGYTFTTYWMQWVKQRPGQGLEWIGAIYPGDGDTRYTQKFKGKATLTADKSSSTAYMQLSSLASEDSAVYYCAINWGYAMDYWGQGTSVTVSS
VL: DIVLTQSHKIMSTSVGDRVSITCKASQDVRTAVAWYQQKPGQSPKLLIKSASYRYTGVPDRFSGSGSGTDFTFTISSVQAEDLAVYYCQQHYSNPTFGGGTKLEIKR
notes: Mouse hybridoma MAb; also called Q27.4; Q27.2
B2: Ovr110.Q19 (antibody, IgG1, V domains shown)
VH: DVLLQESGPGLVKASQSLSLTCSVTGYSITSGYFWNWIRQFPGNKLEWMGYISYDGGNSYNPSLKNRISITRDTSKNQFFLRMKSVTAEDTATYYCARKALWLRFDYWGQGTTLTVSS
VL: EIVLTQSPAIMSVYLGEKVTMTCSASLSVSYMHWYQQKSSTSPKLWIYDTSKVASGVPGRFSGSGSGNSYSLTISSMEAEDVATYYCFQGSGYPFTFGSGTKLEIKR
notes: Mouse hybridoma MAb; also called Q19.6; Ovr110.Q19.6
B3: Ovr110.Q11 (antibody, V domains shown)
VH: B2 VH with L3Q, A14P, N36S, Y51F, G57T, M83L, K84N, A88K, A100L
VL: B2 VL with I2N, V13A, Y14S, L15P, L27S, V53L
notes: Mouse hybridoma MAb; also called Q11.12.3; Ovr110.Q11.12.3
B4: Ovr110.Q23 (antibody, IgG1, V domains shown)
VH: QVQLQQSGAELMKPGASVKISCKATGYTFSSYWIEWVKQRPGHGLEWIGEILPGSGITKYNEKFKTKATFTADTSSNTAYMQLSSLTSEDSAVYYCARYYFGSVNFYFDCWGQGTTLTVSS
VL: QAVVTQESALTTSPGETVTLTCRSSTGAVTTSNYANWVQEKPDHLFTGLIGGTDNRPPGVPARFSGSLIGDKAALTITGTQTEDEAIYFCALWYSNHWVFGGGTKLTVLG
notes: Mouse hybridoma MAb; also called Q23.6
B5: Ovr110.Q12 (antibody, IgG1, V domains shown)
VH: QVQLQQPGAELVKPGATVKLSCKTSGYTFTSYWMHWVKQRPGQGLEWIGEIDPSDSYTNYNQKFKGKATLTVDTSSTTAYMQLSSLTSEDSAVYYCAREYGNNDAMDYWGQGTSVTVSS
VL: QIVLTQSPAIMSASPGEKVTMTCSASSGISYMHWYQQKPGTTPKRWIYDASKLASGVPSRFSGSGSGTSYSLTISSMEAEDAATYYCHQRRSYPFTFGSGTKLEIKR
notes: Mouse hybridoma MAb; also called Q12.2; Ovr110.Q12.2

Target: T1, native Ovr110 protein on tumor cells …
Assay: flow cytometry titration of fluorescein-labeled MAb on ZR75-1 cells; one-site fit

Row | Kd [nM] | Molecule
1 | 4.76 | B1
2 | 0.53 | B2
3 | 0.74 | B3
4 | 5.66 | B4
5 | 0.64 | B5

Target: T1, native Ovr110 protein on tumor cells …
Assay: cell-based or functional assay

Row | Percentage growth compared to wells with media alone; ZR-75-1; MAb 0.4 ug/mL with 1.0 ug/mL mAb-ZAP [%] | Percentage growth compared to wells with media alone; ZR-75-1; MAb 2.0 ug/mL with 1.0 ug/mL mAb-ZAP [%] | Molecule
6 | 60.6 | 69.5 | B1
7 | 28.1 | 46.5 | B2
8 | 37.5 | 45.5 | B4

Target: T2, recombinant Ovr110-hFc encoded by …
Assay: competition ELISA; row = unlabeled blocking MAb; competitor = biotinylated detecting MAb A87.1

Row | signal/noise ratio | Molecule
9 | 6.7 | B1
10 | 6.6 | B2
11 | 6.4 | B3
12 | 6.7 | B4
13 | 6.7 | B5

Target: T1, native Ovr110 protein on tumor cells …
Assay: cell-based or functional assay
Remark: another data set of the same source

Row | Percentage growth compared to wells with media alone; SKBR3; MAb 0.4 ug/mL with 1.0 ug/mL mAb-ZAP [%] | Percentage growth compared to wells with media alone; SKBR3; MAb 2.0 ug/mL with 1.0 ug/mL mAb-ZAP [%] | Molecule
14 | 68.9 | 73.6 | B1
15 | 49.8 | 25 | B2
16 | 68.9 | 73.6 | B4

Target: T1, native Ovr110 protein on tumor cells …
Assay: flow cytometry; purified MAb; SKBR3 cells

Row | % Cells Positive [%] | MFI | Molecule
17 | 94.8 | 3.9 | B1
18 | 95.2 | 4.64 | B2
19 | 98.4 | 5.95 | B3
20 | 93.9 | 3.85 | B4
21 | 95.3 | 4.86 | B5

Target: T2, recombinant Ovr110-hFc encoded by …
Assay: competition ELISA; row = unlabeled blocking MAb; competitor = biotinylated detecting MAb Q11.12.3

Row | signal/noise ratio | Molecule
22 | 5.5 | B1
23 | 1 | B2
24 | 1 | B3
25 | 5.2 | B4
26 | 1.2 | B5

Target: T2, recombinant Ovr110-hFc encoded by …
Assay: competition ELISA; row = unlabeled blocking MAb; competitor = biotinylated detecting MAb Q19.6

Row | signal/noise ratio | Molecule
27 | 6.5 | B1
28 | 1 | B2
29 | 1 | B3
30 | 6 | B4
31 | 1.1 | B5

Target: T2, recombinant Ovr110-hFc encoded by …
Assay: competition ELISA; row = unlabeled blocking MAb; competitor = biotinylated detecting MAb C6.3

Row | signal/noise ratio | Molecule
32 | 1.2 | B1
33 | 1.2 | B2
34 | 1.2 | B3
35 | 1.2 | B4
36 | 1.2 | B5

Target: T2, recombinant Ovr110-hFc encoded by …
Assay: competition ELISA; row = unlabeled blocking MAb; competitor = biotinylated detecting MAb Q27.4

Row | signal/noise ratio | Molecule
37 | 1 | B1
38 | 4.7 | B2
39 | 4.7 | B3
40 | 2.2 | B4
41 | 4.3 | B5

Target: transferrin receptor (TfnR, CD71) on cells (UniProt P02786)
Sequence (P02786 whole entry): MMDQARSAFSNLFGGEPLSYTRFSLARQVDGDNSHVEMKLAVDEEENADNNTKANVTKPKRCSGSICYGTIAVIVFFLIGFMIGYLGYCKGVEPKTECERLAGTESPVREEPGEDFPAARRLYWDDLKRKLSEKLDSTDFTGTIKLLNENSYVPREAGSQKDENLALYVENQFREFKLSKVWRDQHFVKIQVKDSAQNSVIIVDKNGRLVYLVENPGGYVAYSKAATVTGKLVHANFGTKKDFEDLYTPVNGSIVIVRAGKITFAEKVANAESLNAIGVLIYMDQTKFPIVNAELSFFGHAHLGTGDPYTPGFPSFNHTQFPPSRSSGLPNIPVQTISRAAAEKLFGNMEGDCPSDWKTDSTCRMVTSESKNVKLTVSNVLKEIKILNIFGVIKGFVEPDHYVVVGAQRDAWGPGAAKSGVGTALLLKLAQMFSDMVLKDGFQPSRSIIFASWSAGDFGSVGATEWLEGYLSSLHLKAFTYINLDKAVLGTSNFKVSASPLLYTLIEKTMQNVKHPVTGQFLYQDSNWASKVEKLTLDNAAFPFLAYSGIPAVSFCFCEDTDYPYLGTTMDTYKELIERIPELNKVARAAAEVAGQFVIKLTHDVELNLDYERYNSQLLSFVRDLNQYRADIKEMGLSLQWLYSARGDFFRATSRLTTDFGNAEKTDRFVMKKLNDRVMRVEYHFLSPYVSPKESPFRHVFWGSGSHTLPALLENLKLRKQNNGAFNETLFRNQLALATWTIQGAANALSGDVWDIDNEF
Assay: cell-based or functional assay

Row | Percentage growth compared to wells with media alone; HCT116; MAb 2.0 ug/mL with 1.0 ug/mL mAb-ZAP [%] | Percentage growth compared to wells with media alone; SKBR3; MAb 0.4 ug/mL with 1.0 ug/mL mAb-ZAP [%] | Percentage growth compared to wells with media alone; SKBR3; MAb 2.0 ug/mL with 1.0 ug/mL mAb-ZAP [%] | Percentage growth compared to wells with media alone; ZR-75-1; MAb 0.4 ug/mL with 1.0 ug/mL mAb-ZAP [%] | Percentage growth compared to wells with media alone; ZR-75-1; MAb 2.0 ug/mL with 1.0 ug/mL mAb-ZAP [%] | Molecule
42 | 24.9 | 18.4 | 44.6 | 35 | 49.3 | anti-TfnR MAb 5E9 (ATCC) (antibody)

Target: T2, recombinant Ovr110-hFc encoded by …
Assay: competition ELISA; row = unlabeled blocking MAb; competitor = biotinylated detecting MAb Q12.2

Row | signal/noise ratio | Molecule
43 | 3.1 | B1
44 | 1.1 | B2
45 | 1 | B3
46 | 2.8 | B4
47 | 1 | B5

Target: T2, recombinant Ovr110-hFc encoded by …
Assay: competition ELISA; row = unlabeled blocking MAb; competitor = biotinylated detecting MAb Q23.6

Row | signal/noise ratio | Molecule
48 | 1 | B1
49 | 4.8 | B2
50 | 4.5 | B3
51 | 1 | B4
52 | 3.6 | B5

Target: T1, native Ovr110 protein on tumor cells …
Assay: flow cytometry; purified MAb; ZR-75-1 cells

Row | % Cells Positive [%] | MFI | Molecule
53 | 93.3 | 2.92 | B1
54 | 95.6 | 4.11 | B2
55 | 96.4 | 4.68 | B3
56 | 92.7 | 3.25 | B4
57 | 94.1 | 3.76 | B5

Target: T2, recombinant Ovr110-hFc encoded by …
Assay: competition ELISA; row = unlabeled blocking MAb; competitor = biotinylated detecting MAb Q15.2

Row | signal/noise ratio | Molecule
58 | 11.8 | B1
59 | 11.7 | B2
60 | 11.7 | B3
61 | 2.9 | B4
62 | 11.6 | B5

Target: T3, Ovr110 (amino acids 1-282; Ovr110 …)
Assay: flow cytometry; hybridoma supernatant; Ovr110-transfected 293F cells

Row | % Cells Positive [%] | Mean Fluorescence Intensity (MFI) | Molecule
63 | 91.8 | 6.09 | B1
64 | 95.7 | 24.5 | B2
65 | 95.7 | 26 | B3
66 | 94.7 | 17.9 | B4
67 | 96.6 | 31.8 | B5

Target: T2, recombinant Ovr110-hFc encoded by …
Assay: competition ELISA; row = unlabeled blocking MAb; competitor = biotinylated detecting MAb Q3.1

Row | signal/noise ratio | Molecule
68 | 1.4 | B1
69 | 1.3 | B2
70 | 1.3 | B3
71 | 1.4 | B4
72 | 1.4 | B5

Target: T3, Ovr110 (amino acids 1-282; Ovr110 …)
Assay: flow cytometry; purified MAb; Ovr110-transfected 293F cells

Row | % Cells Positive [%] | MFI | Molecule
73 | 95.2 | 5.48 | B1
74 | 91.9 | 5.25 | B2
75 | 93.8 | 5.47 | B3
76 | 92.6 | 4.98 | B4
77 | 94.3 | 5.25 | B5

Target: T1, native Ovr110 protein on tumor cells …
Assay: flow cytometry; hybridoma supernatant; SKBR3 cells

Row | % Cells Positive [%] | Mean Fluorescence Intensity (MFI) | Molecule
78 | 87.7 | 1.48 | B1
79 | 98.9 | 10.4 | B2
80 | 98.7 | 9.71 | B3
81 | 97.1 | 4.35 | B4
82 | 98.8 | 12 | B5
